Molecular target: SEQ ID NO. 25, Ac-…dPSxG-NH2

Protein	reaction rate, PDGF-treated NIH3T3 lysate	reaction rate, control treated NIH3T3 lysate
Akt1 (protein) MNDVAIVKEGWLHKRGEYIKTWRPRYFLLKNDGTFIGYKERPQDVDQRESPLNNFSVAQCQLMKTERPRPNTFIIRCLQWTTVIERTFHVETPEEREEWATAIQTVADGLKRQEEETMDFRSGSPSDNSGAEEMEVSLAKPKHRVTMNEFEYLKLLGKGTFGKVILVKEKATGRYYAMKILKKEVIVAKDEVAHTLTENRVLQNSRHPFLTALKYSFQTHDRLCFVMEYANGGELFFHLSRERVFSEDRARFYGAEIVSALDYLHSEKNVVYRDLKLENLMLDKDGHIKITDFGLCKEGIKDGATMKTFCGTPEYLAPEVLEDNDYGRAVDWWGLGVVMYEMMCGRLPFYNQDHEKLFELILMEEIRFPRTLGPEAKSLLSGLLKKDPTQRLGGGSEDAKEIMQHRFFANIVWQDVYEKKLSPPFKPQVTSETDTRYFDEEFTAQMITITPPDQDDSMECVDSERRPHFPQFSYSASGTA	The PDGF-treated sample showed a reaction rate of 1.13 RFU/sec	the control treated sample had a markedly reduced rate of 0.12 RFU/sec
Akt3 (protein) SDVTIVKEGWVQKRGEYIKNWRPRYFLLKTDGSFIGYKEKPQDVDLPYPLNNFSVAKCQLMKTERPKPNTFIIRCLQWTTVIERTFHVDTPEEREEWTEAIQAVADRLQRQEEERMNCSPTSQIDNIGEEEMDASTTHHKRKTMNDFDYLKLLGKGTFGKVILVREKASGKYYAMKILKKEVIIAKDEVAHTLTESRVLKNTRHPFLTSLKYSFQTKDRLCFVMEYVNGGELFFHLSRERVFSEDRTRFYGAEIVSALDYLHSGKIVYRDLKLENLMLDKDGHIKITDFGLCKEGITDAATMKTFCGTPEYLAPEVLEDNDYGRAVDWWGLGVVMYEMMCGRLPFYNQDHEKLFELILMEDIKFPRTLSSDAKSLLSGLLIKDPNKRLGGGPDDAKEIMRHSFFSGVNWQDVYDKKLVPPFKPQVTSETDTRYFDEEFTAQTITITPPEKYDDDGMDGMDNERRPHFPQFSYSASGRE	The PDGF-treated sample showed a reaction rate of 1.24 RFU/sec	the control treated sample had a markedly reduced rate of 0.28 RFU/sec

From patent US20070196860
